According to US20230265179A1 (TWIST BIOSCIENCE, published 2023):

T1: CD40L (UniProt P29965 1-261, limits assumed)
T1 construct: whole, on cells; also called cytokine over-expressing Expi293 cells (CD40L)
T1 sequence (looked up): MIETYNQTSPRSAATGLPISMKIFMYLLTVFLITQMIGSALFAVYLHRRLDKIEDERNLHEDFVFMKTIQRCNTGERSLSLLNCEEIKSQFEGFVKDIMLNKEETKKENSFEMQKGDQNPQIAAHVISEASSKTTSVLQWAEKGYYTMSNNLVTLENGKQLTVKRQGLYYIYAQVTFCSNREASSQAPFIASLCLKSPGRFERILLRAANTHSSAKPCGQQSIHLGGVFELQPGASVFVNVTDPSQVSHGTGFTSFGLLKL


Target: T1, CD40L
Assay: flow cytometry, 100 nM IgG, CD40L over-expressing Expi293 cells over parent Expi293 cells
Description: All incubations and washes were in buffer containing PBS+1% BSA. MFI Ratio is defined by the mean fluorescence intensity (MFI) of the cytokine over-expressing Expi293 cell over the Expi293 parent cell. […] EC50 was calculated in GraphPad Prism.

Row | Binder | 100 nM FACS (MFI Ratio) [MFI ratio]
1 | CD40L-220 (antibody, V domains shown) VH: EVQLLESGGGLVQPGGSLRLSCAASGGYNFRDYMHWVRQAPGKGLEWVSSITSEGGSTYYADSVKGRFTISRDNSKNTLYLQMNSLRAEDTAVYYCAKDLGQGFDYWGQGTLVTVSS VL: DIQMTQSPSSLSASVGDRVTITCRTSQDIGNYLNWYQQKPGKAPKLLIYGTSYRYSGVPSRFSGSGSGTDFTLTISSLQPEDFATYYCQPSFVFPYTFGQGTKVEIK | 4.3
2 | CD40L-241 (antibody, V domains shown) VH: EVQLLESGGGLVQPGGSLRLSCAASGGYNFRDYMHWVRQAPGKGLEWVSSISDHGFNTYYADSVKGRFTISRDNSKNTLYLQMNSLRAEDTAVYYCAKNLGQGFDYWGQGTLVTVSS VL: DIQMTQSPSSLSASVGDRVTITCRTSQDISNYLNWYQQKPGKAPKLLIYAASNVESGVPSRFSGSGSGTDFTLTISSLQPEDFATYYCASRNGWNHVVFGQGTKVEIK | 1.7
3 | CD40L-239 (antibody, V domains shown) VH: EVQLLESGGGLVQPGGSLRLSCAASGFIFQWYDMGWVRQAPGKGLEWVSSINDRGDQTYYADSVKGRFTISRDNSKNTLYLQMNSLRAEDTAVYYCARVAFSGSFDYWGQGTLVTVSS VL: DIQMTQSPSSLSASVGDRVTITCRASQSILSYLNWYQQKPGKAPKLLIYFTSTLAAGVPSRFSGSGSGTDFTLTISSLQPEDFATYYCQQSYSSAPTFGQGTKVEIK | 4.2
4 | CD40L-342 (antibody, V domains shown) VH: EVQLLESGGGLVQPGGSLRLSCAASGFTFSKYAMNWVRQAPGKGLEWVSAISGSGESTYYADSVKGRFTISRDNSKNTLYLQMNSLRAEDTAVYYCARAHDYDSMLMDYWGQGTLVTVSS VL: DIQMTQSPSSLSASVGDRVTITCRASQSISRYLNWYQQKPGKAPKLLIYAESTLQSGVPSRFSGSGSGTDFTLTISSLQPEDFATYYCQQSYTIPLTFGQGTKVEIK | 124
5 | CD40L-341 (antibody, V domains shown) VH: EVQLLESGGGLVQPGGSLRLSCAASGFTFRSYAMTWVRQAPGKGLEWVSAISGSGDRTYYGDSVKGRFTISRDNSKNTLYLQMNSLRAEDTAVYYCARIARSEDFWSGYYTDFDFDYWGQGTLVTVSS VL: DIQMTQSPSSLSASVGDRVTITCRASQSISTYLNWYQQKPGKAPKLLIYRASTLQSGVPSRFSGSGSGTDFTLTISSLQPEDFATYYCQQSYSNPPTFGQGTKVEIK | 125
6 | CD40L-343 (antibody, V domains shown) VH: EVQLLESGGGLVQPGGSLRLSCAASGFTFSKYAMNWVRQAPGKGLEWVSAISGSGESTYYADSVKGRFTISRDNSKNTLYLQMNSLRAEDTAVYYCARAHDYDSMLMDYWGQGTLVTVSS VL: DIQMTQSPSSLSASVGDRVTITCRASQYINNYLNWYQQKPGKAPKLLIYASSTLQRGVPSRFSGSGSGTDFTLTISSLQPEDFATYYCQQSFSTPITFGQGTKVEIK | 35.8
7 | CD40L-330 (antibody, V domains shown) VH: EVQLLESGGGLVQPGGSLRLSCAASGFTFSKYAMNWVRQAPGKGLEWVSAISGSGESTYYADSVKGRFTISRDNSKNTLYLQMNSLRAEDTAVYYCARAHDYDSMLMDYWGQGTLVTVSS VL: DIQMTQSPSSLSASVGDRVTITCRASQTIGSYLNWYQQKPGKAPKLLIYSASTLQTGVPSRFSGSGSGTDFTLTISSLQPEDFATYYCQQSYSPPLTFGGGTKVEIK | 27.1
8 | CD40L-344 (antibody, V domains shown) VH: EVQLLESGGGLVQPGGSLRLSCAASGFTFSKYAMNWVRQAPGKGLEWVSAISGSGESTYYADSVKGRFTISRDNSKNTLYLQMNSLRAEDTAVYYCARAHDYDSMLMDYWGQGTLVTVSS VL: DIQMTQSPSSLSASVGDRVTITCRASESITTYLNWYQQKPGKAPKLLIYTASGLQSGVPSRFSGSGSGTDFTLTISSLQPEDFATYYCQQSYTVPITFGQGTKVEIK | 4.9
9 | CD40L-217 (antibody, V domains shown) VH: EVQLLESGGGLVQPGGSLRLSCAASGFTFASYEMTWVRQAPGKGLEWVSSITSEGGSTYYADSVKGRFTISRDNSKNTLYLQMNSLRAEDTAVYYCAKPDKIFDYWGQGTLVTVSS VL: DIQMTQSPSSLSASVGDRVTITCKASENVDTYVSWYQQKPGKAPKLLIYDDIDRPSGVPSRFSGSGSGTDFTLTISSLQPEDFATYYCQQSYSSPRTFGQGTKVEIK | 7.7
10 | CD40L-319 (antibody, V domains shown) VH: EVQLLESGGGLVQPGGSLRLSCAASGFTFGHYAMGWVRQAPGKGLEWVSAISGSGAGTYYADSVKGRFTISRDNSKNTLYLQMNSLRAEDTAVYYCATHDSPYYYIDVWGQGTLVTVSS VL: DIQMTQSPSSLSASVGDRVTITCRASQSIYTYLNWYQQKPGKAPKLLIYTASALQTGVPSRFSGSGSGTDFTLTISSLQPEDFATYYCQQSYRIPLTFGGGTKVEIK | 4.2
11 | CD40L-339 (antibody, V domains shown) VH: EVQLLESGGGLVQPGGSLRLSCAASGFTFSNYAMSWVRQAPGKGLEWVSAITGSGSTTYYADSVKGRFTISRDNSKNTLYLQMNSLRAEDTAVYYCARAHDYDSMLMDYWGQGTLVTVSS VL: DIQMTQSPSSLSASVGDRVTITCRASQSIGTFLNWYQQKPGKAPKLLIYGTSNLQSGVPSRFSGSGSGTDFTLTISSLQPEDFATYYCQQGYRTPLTFGQGTKVEIK | 56.6
12 | CD40L-250 (antibody, V domains shown) VH: EVQLLESGGGLVQPGGSLRLSCAASGFIFQWYDMGWVRQAPGKGLEWVSSIDWRGLLTYYADSVKGRFTISRDNSKNTLYLQMNSLRAEDTAVYYCAKAYYGGFDYWGQGTLVTVSS VL: not shown | 27.1
13 | CD40L-338 (antibody, V domains shown) VH: EVQLLESGGGLVQPGGSLRLSCAASGFTFGSFAMNWVRQAPGKGLEWVSAITGGGGSTYYADSVKGRFTISRDNSKNTLYLQMNSLRAEDTAVYYCAHGLAWRWGFDYWGQGTLVTVSS VL: DIQMTQSPSSLSASVGDRVTITCRASQNIDRYLNWYQQKPGKAPKLLIYAASALQSGVPSRFSGSGSGTDFTLTISSLQPEDFATYYCQQSYSILPVTFGQGTKVEIK | 34.3

Other lines, results leading:

Row | 100 nM FACS (MFI Ratio) [MFI ratio] | Binder
14 | 22.4 | CD40L-216 (antibody, V domains shown) VH: EVQLLESGGGLVQPGGSLRLSCAASGFDFSDYEMSWVRQAPGKGLEWVSSITSEGGSTYYADSVKGRFTISRDNSKNTLYLQMNSLRAEDTAVYYCAKPDQFFDYWGQGTLVTVSS VL: DIQMTQSPSSLSASVGDRVTITCRASQPIAYFLSWYQQKPGKAPKLLIYENNNRPSGVPSRFSGSGSGTDFTLTISSLQPEDFATYYCQPSFLYPYTFGQGTKVEIK
15 | 2.1 | CD40L-219 (antibody, V domains shown) VH: EVQLLESGGGLVQPGGSLRLSCAASGFDFSDYEMSWVRQAPGKGLEWVSSITSEGGSTYYADSVKGRFTISRDNSKNTLYLQMNSLRAEDTAVYYCAKPDQFFDYWGQGTLVTVSS VL: DIQMTQSPSSLSASVGDRVTITCRASQSISNNLNWYQQKPGKAPKLLIYGTSYRYSGVPSRFSGSGSGTDFTLTISSLQPEDFATYYCQQTYDTPLTFGQGTKVEIK
16 | 1.8 | CD40L-233 (antibody, V domains shown) VH: EVQLLESGGGLVQPGGSLRLSCAASGFTFEDYQMGWVRQAPGKGLEWVSSITSEGGSTYYADSVKGRFTISRDNSKNTLYLQMNSLRAEDTAVYYCAKPDKDFDYWGQGTLVTVSS VL: DIQMTQSPSSLSASVGDRVTITCRASQFIGRYFNWYQQKPGKAPKLLIYGATILADGVPSRFSGSGSGTDFTLTISSLQPEDFATYYCQQNNNWPTTFGQGTKVEIK
17 | 5.1 | CD40L-218 (antibody, V domains shown) VH: EVQLLESGGGLVQPGGSLRLSCAASGFDFSDYEMSWVRQAPGKGLEWVSSITSEGGSTYYADSVKGRFTISRDNSKNTLYLQMNSLRAEDTAVYYCAKPDVLFDYWGQGTLVTVSS VL: DIQMTQSPSSLSASVGDRVTITCRTSQSLSSYLHWYQQKPGKAPKLLIYQNDKRPSGVPSRFSGSGSGTDFTLTISSLQPEDFATYYCKQSYDLFTFGQGTKVEIK
18 | 61.5 | CD40L-340 (antibody, V domains shown) VH: EVQLLESGGGLVQPGGSLRLSCAASGFGFSSYAMSWVRQAPGKGLEWVSAISGGGGSIYYADSVKGRFTISRDNSKNTLYLQMNSLRAEDTAVYYCATDYGDYDRLNFDLWGQGTLVTVSS VL: DIQMTQSPSSLSASVGDRVTITCRASQSVSRFLNWYQQKPGKAPKLLIYAASTLQPGVPSRFSGSGSGTDFTLTISSLQPEDFATYYCQQSYETPLTFGQGTKVEIK
19 | 1.7 | CD40L-321 (antibody, V domains shown) VH: EVQLLESGGGLVQPGGSLRLSCAASGFSFRSYAMSWVRQAPGKGLEWVSIISGSGGSTSYADSVKGRFTISRDNSKNTLYLQMNSLRAEDTAVYYCARYYFGLSSNWFNPWGQGTLVTVSS VL: DIQMTQSPSSLSAYVGDRVTITCRASQSIGIHLNWYQQKPGKAPKLLIYGASRLQTGVPSRFSGSGSGTDFTLTISSLQPEDFATYYCQQSYSAPLTFGGGTKVEIK
20 | 1.7 | CD40L-266 (antibody, V domains shown) VH: EVQLLESGGGLVQPGGSLRLSCAASGGYNFRDYMHWVRQAPGKGLEWVGKINYAGNTDYNDSVKGRFTISRDNSKNTLYLQMNSLRAEDTAVYYCAKNLGQGFDYWGQGTLVTVSS VL: DIQMTQSPSSLSASVGDRVTITCRASQNIRSYLNWYQQKPGKAPKLLIYSASVLQSGVPSRFSGSGSGTDFTLTISSLQPEDFATYYCKSRAYSGNLVEFGQGTKVEIK
21 | 71.2 | CD40L-379 (antibody, V domains shown) VH: EVQLLESGGGLVQPGGSLRLSCAASGFTFGSFAMNWVRQAPGKGLEWVSAITGGGGSTYYADSVKGRFTISRDNSKNTLYLQMNSLRAEDTAVYYCAHGLAWRWGFDYWGQGTLVTVSS VL: DIQMTQSPSSLSASVGDRVTITCRASQNIDRYLNWYQQKPGKAPKLLIYAASALQSGVPSRFSGSGSGTDFTLTISSLQPEDFATYYCQQSYSILPVTFGGGTKVEIK
